Target: T1, integrin β3 cytoplasmic tail (Homo sapiens, UniProt P05106)
T1 construct: made in house
T1 sequence (P05106 742-788 limits assumed): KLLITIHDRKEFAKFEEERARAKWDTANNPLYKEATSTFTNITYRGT
Experiment: Affinity chromatography/direct binding of kinase fragments to integrin tail
Details: recombinant fragments, direct binding assay
Procedure: Following incubation, beads were washed and bound protein was analyzed by immunoblotting.
For direct binding assays, model peptides (1 mg) were dissolved in 1 ml buffer containing 20 mM Tris (pH 7.9), 500 mM NaCl, and 6 M urea. To this, 50 ul packed His-Bind® Resin (Novagen, Madison, Wis.) was added and the mixture was rotated for 1 hour at room temperature. Immobilized peptides were washed 5× in above buffer without urea, and resuspended in 500 μl buffer containing 20 mM PIPES pH 6.8, 50 mM NaCl, 3 mM MgCl2, 150 mM sucrose, 50 mM NaF, 40 mM Na4P2O7*10H2O (buffer A) supplemented with 0.1% TritonX-100 and 3 mM MgCl2. Purified GST-fusion proteins were added to 0.5 ml buffer A supplemented with 0.1% TritonX-100 and 3 mM MgCl2. Five μl of total packed resin loaded with various integrin cytoplasmic domain model proteins was added to the GST-fusion protein. The mixture was incubated for 40 minutes at room temperature with continuous rotation. The beads were then washed five times in buffer A with 0.1% TritonX-100 and 3 mM MgCl2. Bound proteins were eluted by boiling in reducing sample buffer, fractionated by SDS PAGE, and immuno-blotted.

B1: Zap-70(1-337): Zap-70 fragment containing both SH2 and interdomains A and B (protein)
chain: MPDPAAHLPFFYGSISRAEAEEHLKLAGMADGLFLLRQCLRSLGGYVLSLVHDVRFHHFPIERQLNGTYAIAGGKAHCGPAELCEFYSRDPDGLPCNLRKPCNRPSGLEPQPGVFDCLRDAMVRDYVRQTWKLEGEALEQAIISQAPQVEKLIATTAHERMPWYHSSLTREEAERKLYSGAQTDGKFLLRPRKEQGTYALSLIYGKTVYHYLISQDKAGKYCIPEGTKFDTLWQLVEYLKLKADGLIYCLKEACPNSSASNASGAAAPTLPAHPSTLTHPQRRIDTLNSDGYTPEPARITSPDKPRPMPMDTSVYESPYSDPEELKDKKLFLKRDNL
modifications: left off: a dimerising Fc or GST
notes: Zap-70 fragment containing both SH2 and interdomains A and B
- binding to the β3 tail: bound

B2: Zap-70(1-132): Zap-70 truncation lacking the C-terminal half of interdomain A (protein)
chain: MPDPAAHLPFFYGSISRAEAEEHLKLAGMADGLFLLRQCLRSLGGYVLSLVHDVRFHHFPIERQLNGTYAIAGGKAHCGPAELCEFYSRDPDGLPCNLRKPCNRPSGLEPQPGVFDCLRDAMVRDYVRQTWK
- binding to the β3 tail: decrease in binding
